The values that follow come from PMC9734137 (Cell Discovery, 2022).

For experiment [1], the target named is T1, WT SARS2 RBD (SARS-CoV-2 Wuhan (MN908947), UniProt P0DTC2).
T1 construct: not shown: Fc (human IgG1), C-terminal, cleaved
The experiment can be described thus: SPR. As to conditions: both partners purified.

The target in experiment [2] is T1, WT SARS2 RBD. Briefly: cell-based or functional assay.

B1: aSA3 (VHH)
VHH: QVQLVESGGGLVQPGGSLRLSCAASGFTSDHYALAWFRQAPGKEREGVSCIDSDGNPFYADSVKGRFTGSRDNAKNTVYLQMNSLKLEDTAVYYCAAGLWYGRSLNSFDYDYWGQGTQVTVSS
B1: the Kd (commonly the equilibrium constant for the complex coming apart) in the experiment with WT SARS2 RBD [1] turned out to be 0.0519 nM. Further, the “IC50, neutralisation of WT SARS2 pseudovirus (blocks RBD-ACE2)” value with WT SARS2 RBD [2] was 0.97 nM.

B2: aRBD-2 (VHH)
VHH: QVQLVESGGGLVQAGGSLRLSCAASGRTYTMGWFRQAPGKEREFVAAMRWSDTDYADSLKGRFTISRDNANNAMYLQMNSLGPEDTAVYYCAAGEAWLARSTHHYDYWGQGTQVTVSS
As for B2, the binding result with WT SARS2 RBD [1] is on record as “binds”.
